Laboratory results: patent US20120108492A1, “LIGAND-SPECIFIC NON-ANTIBODY COMPOUNDS THAT INHIBIT CR2 ACTIVATION AND METHODS OF USE THEREOF” (The Regents of the University of Colorado, priority 2008, published 2012)
Substitutions are numbered along the chain they refer to. Names may count otherwise. Read-outs that look alike come from different tables or passages of the source.

B1: Y16A: single-site mutant of recombinant MBP-CR2 SCR1-2 (protein)
chain: ISCGSPPPILNGRISAYSTPIAVGTVIRYSCSGTFRLIGEKSLLCITKDKVDGTWDKPAPKCEYFNKYSSCPEPIVPGGYKIRGSTPYRHGDSVTFACKTNFSMNGNKSVWCQANNMWGPTRLPTCVSVFPLE
modifications: left off: large carriers; small tags and cut ends
B2: R89A: single-site mutant of recombinant MBP-CR2 SCR1-2 (protein)
chain: B1 chain with A16Y, R89A
modifications: left off: large carriers; small tags and cut ends
B3: R83A: single-site mutant of recombinant MBP-CR2 SCR1-2 (protein)
chain: B1 chain with A16Y, R83A
modifications: left off: large carriers; small tags and cut ends
B4: K67A: single-site mutant of recombinant MBP-CR2 SCR1-2 (protein)
chain: B1 chain with A16Y, K67A
modifications: left off: large carriers; small tags and cut ends

Experiments:
[1] = system: anti-CR2 SCR1-2 monoclonal antibody 171; test: MBP-CR2 SCR1-2-171 mAb ELISA; assay type: binding; conditions: mutant MBP-CR2 SCR1-2 relative to wild-type; for % 171 mAb Binding: plate-bound 171 mAb
Procedure: See Asokan et al. (2006) J Immunol 177:383-94; Guthridge et al. (2001) J Immunol 167:5758-66; Young et al. (2007) J Biol Chem 282:36614-36625. […] Hannan et al. (2005) J Mol Biol 346:845-58; and Young et al. (2007) J Biol Chem 282:36614-36625.
(§1) After coating, the plates were blocked using 0.1% BSA in a PBS solution, pH 7.4 for one hour at room temperature. The plates were then washed, and incubated with either wild-type or mutant MBP-CR2 SCR1-2, at concentrations ranging from 0.03125-2.0 μg/ml in PBS for one hour at room temperature. After further washing, wild-type or mutant MBP-CR2 binding was detected using commercially available horseradish peroxidase-conjugated anti-MBP mAb (New England Biolabs) according to the manufacturer's instructions.

anti-CR2 SCR1-2 mAb 629 = test: MBP-CR2 SCR1-2-629 mAb ELISA; assay type: binding; conditions: mutant MBP-CR2 SCR1-2 relative to wild-type; for % 629 mAb Bindng: plate-bound 629 mAb
Text: The excellent correlation observed between our cell-binding studies and the ELISA analyses provides proof-of-principle that the MBP-CR2 SCR1-2 ELISA is an effective means of characterizing CR2-ligand interactions. […] See Asokan et al. (2006) J Immunol 177:383-94; Guthridge et al. (2001) J Immunol 167:5758-66; Young et al. (2007) J Biol Chem 282:36614-36625. […] This epitope overlaps extensively with the binding surface on CR2 described above for EBV gp350, and also with the previously described binding sites for C3dg and C3d. Hannan et al. (2005) J Mol Biol 346:845-58; and Young et al. (2007) J Biol Chem 282:36614-36625.
as §1

EBV gp350 [2] = biological target: T1, EBV gp350 (Epstein-Barr virus, UniProt P03200); conditions: previously observed cell-binding study; mutant CR2 relative to wild-type; cited from earlier work
T1 sequence (P03200 1-470): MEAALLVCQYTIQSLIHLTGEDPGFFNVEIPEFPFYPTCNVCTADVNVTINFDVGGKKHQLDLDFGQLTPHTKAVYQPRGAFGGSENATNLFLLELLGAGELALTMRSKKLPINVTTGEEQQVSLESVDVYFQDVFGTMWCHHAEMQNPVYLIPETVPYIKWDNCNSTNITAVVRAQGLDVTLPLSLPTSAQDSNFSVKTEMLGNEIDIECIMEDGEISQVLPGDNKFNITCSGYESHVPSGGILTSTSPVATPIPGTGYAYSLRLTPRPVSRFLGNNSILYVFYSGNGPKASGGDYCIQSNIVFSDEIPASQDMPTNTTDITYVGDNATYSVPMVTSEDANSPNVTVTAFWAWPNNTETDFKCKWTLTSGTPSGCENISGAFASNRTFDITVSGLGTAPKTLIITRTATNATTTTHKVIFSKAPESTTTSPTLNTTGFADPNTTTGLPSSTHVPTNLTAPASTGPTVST

EBV gp350 [3] = biological target: T1, EBV gp350; test: MBP-CR2 SCR1-2 mutant-EBV gp350 ELISA; assay type: binding; design: DNA corresponding to residues 1-470 of EBV gp350/220; E. coli biotin carboxyl carrier protein (BCCP) fragment, residues 70-156; hexa-histidine (C); made in house; host or cells: human embryonic kidney 293f freestyle cells (pSecTag2/Hygro B); conditions: for EBV gp350 binding relative to wild-type CR2: mutant MBP-CR2 SCR1-2
Procedure: See Martin et al. (1991) J Exp Med 174:1299-311; Young et al. (2007) J Biol Chem 282:36614-36625; Guthridge et al. (2001) Biochemistry 40:5931-41; and Sarrias et al. (2001) J Immunol 167:1490-9. […] Young et al. (2007) J Biol Chem 282:36614-36625.
as §1

Row | Molecule | Weighting (171 mAb) [1] | % 171 mAb Binding [1] | Weighting (629 mAb) (anti-CR2 SCR1-2 mAb 629) | % 629 mAb Bindng (anti-CR2 SCR1-2 mAb 629) | EBV gp350 binding (EBV gp350 [2]) | EBV gp350 binding (EBV gp350 [3]; mutant CR2 relative to wild-type CR2) | EBV gp350 binding relative to wild-type CR2 (EBV gp350 [3]) | decrease in EBV gp350 binding (EBV gp350 [3]; reduction relative to wild-type MBP-CR2 SCR1-2)
1 | B1 | +++ (+++89.9-70%) | 81.4% | ++++ (++++>90%) | 154.4% | 66.7% | 95.1% | failed to inhibit EBV gp350 binding | 
2 | B2 | ++++ (++++>90%) | 93.9% | +++ (+++89.9-70%) | 87.7% |  |  | decreased binding affinities for EBV gp350 | 
3 | B3 | ++++ (++++>90%) | 96.9% | ++++ (++++>90%) | 94.4% |  |  | decreased binding affinities for EBV gp350 | 
4 | B4 | +++ (+++89.9-70%) | 87.7% | ++++ (++++>90%) | 107.2% |  |  |  | approximately 20%
